Tests used:
[1] = biological target: MBP-HIGD1A chimera (hypoxia-inducible domain family member 1A with an N-terminal maltose binding protein tag) (human) (UniProt Q9Y241); experiment: ITC
[2] = biological target: wild-type cytochrome c (human, UniProt P99999 1-105); experiment: ITC
Sequence of wild-type cytochrome c (P99999 whole entry): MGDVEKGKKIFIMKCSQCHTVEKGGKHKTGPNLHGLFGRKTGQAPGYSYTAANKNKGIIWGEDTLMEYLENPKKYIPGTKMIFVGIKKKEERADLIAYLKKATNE

stoichiometry N [1] | binding result [2] | Molecule
1 | – | Y97pCMF cytochrome c (phosphomimetic mutant) (from UniProt P99999 1-105) (natural protein)
– | binds | MSTDTGVSLPSYEEDQGSKLIRKAKE (domain or fragment, human, UniProt Q9Y241 1-26, looked up) [N-terminal domain of HIGD1A (HIGD1A 1-26)]
